For experiment [1], the target named is T1, Human LILRB1 on transiently transfected HEK293-6E cells (human, UniProt Q8NHL6 24-650).
T1 construct: whole, on cells; also called hLILRB1
In words: flow cytometry, transiently transfected HEK293-6E cells. As to the method: To determine that the anti-LILRB2 antibodies specifically bind to LILRB2 and not other LILRB and LILRA family members, a cross-reactivity assay was performed. Cross-reactivity of the LILRB2 antibodies to other LILRB proteins was assessed by antibody binding to transiently transfected HEK293-6E cells, measured by flow cytometry. Binding was evaluated to HEK293-6E cells transiently transfected with human LILRB-1, -2, -3, -4, and 5 plasmids (Origene, Nos. RC219949, RC217935, RC211228, RC220932, RC206516) or to cells transiently transfected with human LILRA-1, -2, -4, -5, and -6 plasmids (Origene, Nos. RC210808, RC205626, RC220452, RC212310 RC212965). […] Murine primary antibodies to LILRA and LILRB targets and corresponding isotype controls were used to confirm specific binding of all targets tested (R&D Systems) while an AF647 F(ab′)₂ fragment goat anti-mouse antibody (Jackson ImmunoResearch, No. 115-606-062) was used for the detection of bound positive control antibodies. No binding of B2A-IgG4 or B2A-IgG1 to LILRB-1, -3, -4, or -5 was observed, and no binding of either antibody to LILRA-1, -2, -4, -5, or -6 was observed, confirming specificity of these antibodies.
For orientation: A flow cytometer gives signals particle by particle.

For experiment [2], the target named is T2, Recombinant human LILRB2 protein (ELISA antigen) (human, UniProt Q8N423 22-460).
T2 construct: also called LILRB2-His; recombinant LILRB2
The experiment is described as follows: ELISA, plate-coated recombinant human LILRB2. As for the experimental part:
To confirm binding to human and cynomolgus LILRB2, antibodies in supernatants were evaluated for binding by enzyme-linked immunosorbent assay (ELISA). Recombinant LILRB2 proteins (human: SEQ ID NO: 48; cynomolgus) were diluted in PBS to 2 μg/mL and added to 384-well high-binding ELISA plates (Greiner Bio-One Microlon™) at 25 μL/well and incubated at 4° C. overnight. The plates were washed three times with Wash Buffer (0.05% Tween® 20 in PBS), using a microplate washer and then blocked with 90 μL/well of ELISA Blocking Buffer A (1% BSA in PBS) for 1 hour at room temperature (RT). After blocking, 25 μL/well of LILRB2 antibodies or isotype control were added to the plates and incubated for 1 hour at RT. After primary antibody binding, plates were washed three times with Wash Buffer using a microplate washer. Secondary detection antibody (HRP-goat anti-rabbit Fab fragment) was diluted to 1:3000 in assay diluent (1% BSA in PBS) and 25 μL/well was added to plates and incubated at RT protected from light for 1 hour. Following incubation, plates were washed four times with Wash Buffer, using a microplate washer. After removal of the final wash, 25 μL/well of 1-Step™ Ultra TMB-ELISA Substrate Solution (Thermo Fisher, No. 34028) was added and plates were incubated for 5-10 min at RT, protected from light. After development, the reaction was stopped by addition of 25 μL/well of 0.3 M HCl, and plates were read using an EnVision (Perkin Elmer) microplate reader at 450 nm. EC₅₀ values were calculated based on log concentration of the primary antibodies at optical density at 450 nm.
Select humanized variant antibodies were purified and tested for their ability to bind human LILRB2 by ELISA, using the method described in Example 2, and binding to HEK293T cells expressing human LILRB2, using the method described in Example 4. Representative data are shown for IgG4 variants in Table 6.
A general note: An ELISA detects its analyte on a solid surface through an enzyme-linked reagent.

Experiment [3] addresses T3, Human LILRB2 on primary human myeloid cells (human, UniProt Q8N423 22-597).
T3 construct: whole, on cells; the cell type is named under assay; also called LILRB2 on monocytes, M0 and M2c macrophages, myeloid dendritic cells, neutrophils
In words: flow cytometry, AF647-conjugated antibody on human monocytes (15 subjects), average. As for the experimental part:
(§1) Anti-LILRB2 antibodies were evaluated for their ability to bind myeloid cell subsets expressing LILRB2, including monocytes, M0 macrophages, and M2c macrophages. M2c macrophages are used as a surrogate for tumor-associated macrophages, a suppressive macrophage commonly found in the tumor microenvironment. Frozen monocytes were removed from storage in vapor phase liquid nitrogen and thawed by gentle swirling in a water bath at 37° C., then resuspended in X-VIVO™ 15 media with 10% FBS. PBMC were placed in a 15 mL conical tube and centrifuged at 300×g for 5 minutes, then supernatant was removed. Cells were resuspended in Assay Medium (X-VIVO™ 15+10% FBS) at a cell density of 2.5×10⁵ cells/mL. Cells were plated into 96-well flat bottom plates at 100 μL/well (25K cells/well). M0 and M2c macrophages were generated as described in Example 10 and collected from flasks by incubation for 15 min at RT in Macrophage Detachment Solution DXF, then removed from the flask into X-VIVO™ 15 medium. Following centrifugation, the cells were resuspended in FACS Blocking Buffer D (FACS Buffer+10% FBS+0.5 mg/mL human IgG1) then incubated at 4° C. for 30 minutes. […]

The target in experiment [4] is T3, Human LILRB2 on primary human myeloid …. In words: flow cytometry, AF647-conjugated antibody on human M0 macrophages (7 subjects), average. As to the method: as §1

Results on three molecules are retold here after patent publication US20240132589A1 (ONCORESPONSE, published 2024).

Usually EC50 stands for the concentration at which the effect is half-maximal.

T3 sequence (Q8N423 22-597): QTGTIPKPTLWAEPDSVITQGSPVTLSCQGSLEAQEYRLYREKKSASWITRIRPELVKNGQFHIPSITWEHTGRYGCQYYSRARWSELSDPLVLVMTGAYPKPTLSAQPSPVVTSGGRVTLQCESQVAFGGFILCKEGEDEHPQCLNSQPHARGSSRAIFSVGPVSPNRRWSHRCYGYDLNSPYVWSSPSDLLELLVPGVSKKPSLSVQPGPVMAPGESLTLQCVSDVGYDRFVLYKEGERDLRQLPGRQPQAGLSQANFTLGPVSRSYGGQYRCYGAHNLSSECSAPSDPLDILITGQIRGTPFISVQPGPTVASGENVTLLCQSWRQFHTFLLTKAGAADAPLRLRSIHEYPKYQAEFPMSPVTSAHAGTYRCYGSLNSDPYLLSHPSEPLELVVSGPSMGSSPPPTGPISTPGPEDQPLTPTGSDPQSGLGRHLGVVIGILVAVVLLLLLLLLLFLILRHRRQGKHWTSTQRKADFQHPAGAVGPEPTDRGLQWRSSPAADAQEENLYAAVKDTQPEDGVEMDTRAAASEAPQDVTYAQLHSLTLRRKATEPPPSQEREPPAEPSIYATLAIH
T1 sequence (Q8NHL6 24-650): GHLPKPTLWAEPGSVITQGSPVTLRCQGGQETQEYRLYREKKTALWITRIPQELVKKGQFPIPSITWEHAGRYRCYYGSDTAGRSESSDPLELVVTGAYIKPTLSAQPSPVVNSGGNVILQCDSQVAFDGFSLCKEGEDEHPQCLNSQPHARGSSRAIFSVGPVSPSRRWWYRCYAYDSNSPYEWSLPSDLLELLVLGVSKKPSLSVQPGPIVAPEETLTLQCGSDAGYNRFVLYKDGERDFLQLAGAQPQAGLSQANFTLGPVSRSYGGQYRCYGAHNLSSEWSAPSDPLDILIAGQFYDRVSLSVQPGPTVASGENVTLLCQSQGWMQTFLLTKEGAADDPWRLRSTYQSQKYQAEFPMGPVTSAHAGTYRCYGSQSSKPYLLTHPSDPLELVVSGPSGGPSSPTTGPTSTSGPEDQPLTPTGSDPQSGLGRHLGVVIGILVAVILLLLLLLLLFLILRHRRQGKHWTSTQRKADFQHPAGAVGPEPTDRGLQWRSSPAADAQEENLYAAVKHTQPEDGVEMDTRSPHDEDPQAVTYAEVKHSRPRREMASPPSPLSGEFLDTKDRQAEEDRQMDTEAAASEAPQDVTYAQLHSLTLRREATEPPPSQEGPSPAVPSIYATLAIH
T2 sequence (Q8N423 other isoform, or with tags, fused parts or gaps limits assumed): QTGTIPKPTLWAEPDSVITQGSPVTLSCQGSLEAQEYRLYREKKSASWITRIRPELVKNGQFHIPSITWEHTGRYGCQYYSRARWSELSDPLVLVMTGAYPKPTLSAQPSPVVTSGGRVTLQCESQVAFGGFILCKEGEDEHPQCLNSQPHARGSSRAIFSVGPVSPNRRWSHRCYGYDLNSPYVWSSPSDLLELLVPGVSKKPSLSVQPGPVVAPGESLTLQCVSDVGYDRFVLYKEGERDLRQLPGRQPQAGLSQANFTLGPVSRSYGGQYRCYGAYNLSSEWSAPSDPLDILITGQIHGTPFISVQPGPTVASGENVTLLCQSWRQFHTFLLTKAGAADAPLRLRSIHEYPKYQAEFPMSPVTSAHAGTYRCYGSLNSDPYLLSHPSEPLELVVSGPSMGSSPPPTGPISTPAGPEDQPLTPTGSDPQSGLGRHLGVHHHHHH

B1: B2A-IgG1 (antibody)
heavy: not shown
light: DVVMTQTPSSVSAALGGTVTIKCQASQSIGSNLAWYQLKPGQRPKLLIYAAATLASGGSSRFKGSGSGTDFTLTISDLECADAATYYCQSYVSGSSDVAFGGGTEVVVKRTVAAPSVFIFPPSDEQLKSGTASVVCLLNNFYPREAKVQWKVDNALQSGNSQESVTEQDSKDSTYSLSSTLTLSKADYEKHKVYACEVTHQGLSSPVTKSFNRGEC
notes: Rabbit variable regions on human IgG1 / kappa constant regions; AF647-conjugated in some flow assays; also called B2A-IgG1 chimera; anti-LILRB2 B2A-IgG1
The molecule B1 came in with an MFI in experiment [1] of 43 MFI.

B2: B2A-IgG4 (antibody)
heavy: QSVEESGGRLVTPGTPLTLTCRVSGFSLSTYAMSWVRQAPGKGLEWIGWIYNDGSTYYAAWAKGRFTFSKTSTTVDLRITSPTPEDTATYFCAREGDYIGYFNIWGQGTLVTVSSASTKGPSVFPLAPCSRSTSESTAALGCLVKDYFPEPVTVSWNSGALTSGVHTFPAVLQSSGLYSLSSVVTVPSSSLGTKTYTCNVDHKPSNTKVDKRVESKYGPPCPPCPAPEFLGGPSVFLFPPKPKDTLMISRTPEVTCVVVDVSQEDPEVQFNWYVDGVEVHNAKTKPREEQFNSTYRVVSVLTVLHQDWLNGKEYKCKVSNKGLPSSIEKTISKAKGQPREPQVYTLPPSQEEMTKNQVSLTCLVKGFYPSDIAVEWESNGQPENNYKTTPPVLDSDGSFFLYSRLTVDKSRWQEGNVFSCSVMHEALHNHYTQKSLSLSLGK
light: DVVMTQTPSSVSAALGGTVTIKCQASQSIGSNLAWYQLKPGQRPKLLIYAAATLASGGSSRFKGSGSGTDFTLTISDLECADAATYYCQSYVSGSSDVAFGGGTEVVVKRTVAAPSVFIFPPSDEQLKSGTASVVCLLNNFYPREAKVQWKVDNALQSGNSQESVTEQDSKDSTYSLSSTLTLSKADYEKHKVYACEVTHQGLSSPVTKSFNRGEC
notes: Rabbit variable regions on human IgG4 / kappa constant regions; also called B2A-IgG4 chimera; Parent B2A-IgG4
B2: the 50% effective concentration (EC50) in experiment [2] worked out at 0.00235 µg/mL.

B3: B2H1-55 (antibody, V domains shown)
VH: EVQLLESGGGLVQPGTSLTLSCAASGFSLSTYAMSWVRQAPGKGLEWIGWIYNDGSTYYAAWAKGRFTISKDTSKTTLYLQITSLRAEDTATYFCAREGDYIGYFNIWGQGTLVTVSS
VL: DVVMTQTPSSVSAALGGTVTIKCQASQSIGSNLAWYQLKPGQRPKLLIYAAATLASGGSSRFKGSGSGTDFTLTISSLEPADAATYYCQSYVSGSSDVAFGGGTEVVVK
notes: Humanized variant, human IgG1 / kappa; also called humanized variant B2H1-55; humanized LILRB2 antibody B2H1-55
Take B3: the results for the EC50 in experiment [3] and in experiment [4] were 0.0356 µg/mL and 0.0748 µg/mL, respectively.
